# Experimental data published in doi:10.1101/2023.01.20.524748, “A Novel Monoclonal Antibody Targeting a Large Surface of the Receptor Binding Motif Shows Pan-neutralizing SARS-CoV-2 Activity Including BQ.1.1 Variant” (bioRxiv, 2023).
# What was measured:
# [1] = biological target: T1, RBD of the WH1 (ancestral) SARS-CoV-2 spike protein (Severe acute respiratory syndrome …, UniProt P0DTC2); test: ELISA; conditions: both partners purified
# T1 construct: also called RBD from the ancestral variant; WH1 RBD
# [2] = biological target: T2, B.1.1.529 (BA.1) S1 + S2 Trimer-His Recombinant Protein (SARS-CoV-2 Omicron B.1.1.529 (BA.1), strain); test: cryo-EM structure; conditions: both partners purified
# T2 construct: also called Omicron BA.1 trimeric spike; BA.1 spike
Binder,binding result [1],stoichiometry N [2] [Fab per spike trimer]
"17T2 mAb (human recombinant monoclonal IgG1) (antibody, V domains shown) VH: QVQLVQSGPEVKKPGTSVKVSCKAPVFTFSISAVQWVRQARGQRLEWIGWIVVGSGNTNYAQNFQERVTITTDMSTGTVYMELSGLRSEDTAMYYCAAPYCNRTTCYDGFDLWGQGTMVTVSS VL: EIVLTQSPGTLSLSPGERATLSCRASQSISSNYLAWYQQKPGQAPRLLIYGASSRATGIPDRFSGSGSGTDFTLSINRLEPEDFAMYYCQHYGGLSRWTFGQGTKVEIK",binds,–
"17T2 Fab fragment (Fab, V domains shown, also called Fab 17T2) VH: QVQLVQSGPEVKKPGTSVKVSCKAPVFTFSISAVQWVRQARGQRLEWIGWIVVGSGNTNYAQNFQERVTITTDMSTGTVYMELSGLRSEDTAMYYCAAPYCNRTTCYDGFDLWGQGTMVTVSS VL: EIVLTQSPGTLSLSPGERATLSCRASQSISSNYLAWYQQKPGQAPRLLIYGASSRATGIPDRFSGSGSGTDFTLSINRLEPEDFAMYYCQHYGGLSRWTFGQGTKVEIK",–,3
